Results as given in US20210395379A1 (NUMAB THERAPEUTICS, published 2021).
Positions count from the first letter of the chain named. Names may count otherwise. Each block holds one binder with its values, some of them ahead of it.

Columns and labels:
[1] = target: human CD137 expressed on Jurkat cells (human, UniProt Q07011 24-255); experiment: cell-based or functional assay
human serum albumin = target: T1, human serum albumin (human, UniProt P02768 25-609); experiment: SPR (Biacore T200), serum albumin amine-coupled to CM5 chip, pH 5.5
T1 construct: Amine-coupled to a CM5 chip; also called human SA; HSA
Experimental: Affinity of molecules to serum albumin (SA) of the different species was determined by SPR measurements using a Biacore T200 device (GE Healthcare). SA was directly coupled to a CM5 sensor chip (GE Healthcare) using amine coupling chemistry. […] The assay was run in a 1×PBS-Tween buffer at pH 5.5.

Fc tagged human PD-L1 = target: T2, Fc tagged human PD-L1 (human, UniProt Q9NZQ7 19-238, limits assumed); experiment: SPR (Biacore T200), Fc tagged PDL1 captured by anti-human Fc, molecule as analyte 0.18-45 nM
T2 construct: not shown: Fc tag
Experimental: (§1) Affinity to PDL1 was determined by SPR measurements using a Biacore T200 device (GE Healthcare). In this experiment, Fc tagged PDL1 from different species was captured using the Human Antibody Capture kit from GE Healthcare (cat. BR-1008-39). After each analyte injection cycle, the anti-human Fc-specific IgG was regenerated and new antigen was captured. For all formats, the multispecific molecules were injected as analyte using a dose response multi-cycle kinetic assay with concentrations of the analyte ranging from 0.18 to 45 nM (two-fold dilutions steps) diluted in running buffer. Association and dissociation time were set to 300 s and 720 s, respectively. The apparent dissociation (kd) and association (kₐ) rate constants and the apparent dissociation equilibrium constant (KD) were calculated using one-to-one Langmuir binding model. Affinity to CD137 of the different species was determined using the identical setup as for PDL1 with the exception that CD137-Fc chimeric proteins from different species were captured by the immobilized antibody.

[2] = target: T3, Fc tagged human CD137 (R&D Systems, cat. 838-4B-100) (human, UniProt Q07011 24-186); experiment: SPR (Biacore T200), Fc tagged human CD137 captured by anti-human Fc, scFv as analyte
T3 construct: Bought Fc chimera; also called CD137 Fc chimera; human CD137 (tagged with Fc); not shown: Fc tag of the bought chimera
Experimental: In this experiment, Fc tagged human CD137 (R&D Systems, cat. 838-4B-100) was captured using the Human Antibody Capture kit from GE healthcare (cat. BR-1008-39). After each analyte injection cycle, the anti-human Fc-specific IgG was regenerated and new antigen was captured. The scFvs were injected as analyte using a dose response multi-cycle kinetic assay over the captured CD137 with concentrations of the analyte ranging from 0.19 to 45 nM (three-fold dilutions steps) diluted in running buffer. Association and dissociation time were set to 300 s and 720 s, respectively. The obtained sensorgrams were fitted using the 1:1 binding model.

[3] = target: CD137 (form used for the alanine mutants of PRO1359 not stated) (Homo sapiens (Human), UniProt Q07011 24-186, limits assumed); experiment: assay not described
[4] = target: T3, Fc tagged human CD137 (R&D Systems, …); experiment: SPR (Biacore T200), CD137-Fc captured by anti-human Fc, molecule as analyte 0.18-45 nM
Experimental: as §1

Kd [2]: 3.07 nM
koff [2]: 0.00353 s⁻¹
kon [2]: 1.15e+06 M⁻¹ s⁻¹
B3: PRO1704 (38-27-A11 sc07) (scFv)
scFv: DIQMTQSPSSLSASVGDRVTITCQASQSISNRLAWYQQKPGKAPKLLIYSASTLASGVPSRFSGSGSGTDFTLTISSLQPEDFATYYCQSTYYGNDGNAFGCGTKVTVLGGGGGSGGGGSGGGGSGGGGSEVQLVESGGGLVQPGGSLRLSCAASGFSFSANYYPCWVRQAPGKCLEWIGCIYGGSSDITYDANWTKGRFTISRDNSKNTVYLQMNSLRAEDTAVYYCARSAWYSGWGGDLWGQGTLVTVSS
notes: VL-linker-VH, CDR graft with interdomain disulfide (VL-T141C)

fold reduction of affinity against unmutated PRO1359 [3]: > 1000 fold
B4: PRO1359 with TRP 233 mutated to alanine (scFv)
scFv: B3 scFv with C102T, C175G, W233A

kon [4]: 190000 M⁻¹ s⁻¹
B6: PRO1186 (other)
chain: DIQMTQSPSSLSASVGDRVTITCQASQSIGTYLAWYQQKPGKAPKLLIYRAFILASGVPSRFSGSGSGTDFTLTISSLQPEDFATYYCQSNFYSDSTTIGPNAFGTGTKVTVLGGGGGSQVQLQESGPGLVKPSETLSLTCKVSGFSFSNSYWICWIRQPPGKGLEWIGCTFVGSSDSTYYANWAKGRVTISVDSSKNQFSLKLSSVTAADTAVYYCARHPSDAVYGYANNLWGQGTLVTVSSGGGGSGGGGSGGGGSGGGGSDIQMTQSPSSLSASVGDRVTITCQASQSINNVLAWYQQKPGKAPKLLIYRASTLASGVPSRFSGSGSGTDFTLTISSLQPEDFATYYCQSSYGNYGDFGTGTKVTVLGGGGGSQVQLQESGPGLVKPSETLSLTCKVSGFSFNSDYWIYWIRQPPGKGLEWIGSIYGGSSGNTQYASWAQGRVTISVDSSKNQFSLKLSSVTAADTAVYYCARGYVDYGGATDLWGQGTLVTVSSGGGGSGGGGSVVMTQSPSSLSASVGDRVTITCQASQIISSRSAWYQQKPGQPPKLLIYQASKLASGVPSRFSGSGSGTDFTLTISSLQPEDFATYYCQCTYIDSNFGAFGGGTKLTVLGGGGGSGGGGSGGGGSGGGGSEVQLVESGGGLVQPGGSLRLSCAASGFSFSSSYWICWVRQAPGKGLEWVGCVFTGDGTTYYASWAKGRFTISRDNSKNTVYLQMNSLRAEDTATYFCARPVSVYYYGMDLWGQGTLVTVSS
notes: Trispecific scDb-scFv with a different anti-CD137 domain; also called PR01186

Continued, binder first:

B1: PRO1480 (other)
chain: DIQMTQSPASLSASVGDRVTITCQASQSIGTYLAWYQQKPGKPPKLLIYRAFILASGVPSRFSGSGSGTDFTLTISSLQPEDFATYYCQSNFYSDSTTIGPNAFGTGTKVTVLGGGGGSEVQLVESGGGLVQPGGSLRLSCAASGFSFSANYYPCWVRQAPGKGLEWIGCIYGGSSDITYDANWTKGRFTISRDNSKNTVYLQMNSLRAEDTAVYYCARSAWYSGWGGDLWGQGTLVTVSSGGGGSGGGGSGGGGSGGGGSIQMTQSPSSLSASVGDRVTITCQASQSISNRLAWYQQKPGKAPKLLIYSASTLASGVPSRFSGSGSGTDFTLTISSLQPEDFATYYCQSTYYGNDGNAFGTGTKVTVLGGGGGSEVQLVESGGGLVQPGGSLRLSCAASGFSFNSDYWIYWVRQAPGKGLEWIASIYGGSSGNTQYASWAQGRFTISRDNSKNTVYLQMNSLRAEDTAVYFCARGYVDYGGATDLWGQGTLVTVSSGGGGSGGGGSIQMTQSPSSLSASVGDRVTITCQSSESVYSNNQLSWYQQKPGQPPKLLIYDASDLASGVPSRFSGSGSGTDFTLTISSLQPEDFATYYCAGGFSSSSDTAFGGGTKLTVLGGGGGSGGGGSGGGGSGGGGSEVQLVESGGGLVQPGGSLRLSCAASGFSLSSNAMGWVRQAPGKGLEYIGIISVGGFTYYASWAKGRFTISRDNSKNTVYLQMNSLRAEDTATYFCARDRHGGDSSGAFYLWGQGTLVTVSS
notes: Trispecific scDb-scFv; CD137 arm derived from 38-27-A11 sc02; also called PRO1480 (38-27-A11); trispecific anti-PDL1xCD137xHSA scDb-scFv
IC50 (ng/ml), activation of NF-kB reporter gene, HCC827 + IFNg, 6 h, with HSA [1]: 6.44 ng/mL
IC50 (ng/ml), activation of NF-kB reporter gene, HCC827 + IFNg, 24 h, with HSA [1]: 4.67 ng/mL
Kd (human serum albumin): 1.03 nM
koff (human serum albumin): 0.000337 s⁻¹
Kd (Fc tagged human PD-L1): 0.015 nM
koff (Fc tagged human PD-L1): 5.1e-05 s⁻¹

B2: PRO1481 (other)
chain: B1 chain with V121S, Y216F, Q233P, I262F, M264L, A303P
notes: Trispecific scDb-scFv; CD137 arm derived from 38-27-A11 sc03
IC50 (ng/ml), activation of NF-kB reporter gene, HCC827 + IFNg, 6 h, with HSA [1]: 7.22 ng/mL
IC50 (ng/ml), activation of NF-kB reporter gene, HCC827 + IFNg, 24 h, with HSA [1]: 5.51 ng/mL
koff (Fc tagged human PD-L1): 4.3e-05 s⁻¹

B5: PRO1359 with TYR 191 mutated to alanine (scFv)
scFv: B3 scFv with C102T, C175G, Y191A
fold reduction of affinity against unmutated PRO1359 [3]: > 1000 fold

B7: PRO885 (bispecific antibody)
chain: DIQMTQSPSSLSASVGDRVTITCQASQSINDYLAWYQQKPGKAPKLLIYKASTLASGVPSRFSGSGSGTDFTLTISSLQPEDFATYYCQQGYIITDIDNVFGTGTKVTVLGGGGGSQVQLQESGPGLVKPSETLSLTCKVSGFSFSNSYWICWIRQPPGKGLEWIGCTFVGSSDSTYYANWAKGRVTISVDSSKNQFSLKLSSVTAADTAVYYCARHPSDAVYGYANNLWGQGTLVTVSSGGGGSGGGGSGGGGSGGGGSIQMTQSPSSLSASVGDRVTITCQASQSINNVLAWYQQKPGKAPKLLIYRASTLASGVPSRFSGSGSGTDFTLTISSLQPEDFATYYCQSSYGNYGDFGTGTKVTVLGGGGGSQVQLQESGPGLVKPSETLSLTCKVSGFSFSSGYDMCWIRQPPGKGLEWIGCVVAGSVDITYYASWAKGRVTISVDSSKNQFSLKLSSVTAADTAVYYCARKDAYSDAFNLWGQGTLVTVSS
Kd [4]: 3.2 nM
Kd (Fc tagged human PD-L1): 0.065 nM
